Test results: US20040005554A1 (APPLIED RESEARCH SYSTEMS ARS HOLDING N V, published 2004)

Biological target: the molecule itself
Assay: SDS-PAGE (silver stain) and anti-FLAG western blot of immunoaffinity-purified protein, with and without reduction

B1: FLAG-BRP fusion protein (N-terminal FLAG tag on predicted mature human BRP, secreted through the mouse preprotrypsin signal) (other)
chain: DYKDDDDKASSGNLRTFVGCAVREFTFLAKKPGCRGLRITTDACWGRCETWEKPILEPPYIEAHHRVCTYNETKQVTVKLPNCAPGVDPFYTYPVAIRCDCGACSTATTECETI
notes: The BRP part comes from BRP-NTAP (BRP without the secretory signal peptide); also called FLAG-BRP in pCEP4
  binding result: binds
